In patent US20130078245A1 (REGENTS OF THE UNIVERSITY OF COLORADO A BODY CORPORATE, published 2013) one finds Kd data, which are given here for 1 molecule.

In this assay the target is T1, recombinant human C3d (human, UniProt P01024 996-1303, limits assumed).
T1 construct: domain: C3d; The Biacore paragraph says only C3d; also called recombinant C3d
Nature of the assay: BIAcore SPR, C3d immobilized on the chip, antibody at 10, 30 and 90 nM in flow, 1:1 Langmuir fit. The text has this:
The binding affinity of the anti-C3d/C3dg antibodies to C3d was further tested by BIAcore analysis.
A general note: Surface plasmon resonance follows binding to a sensor surface in real time, without labels.

T1 sequence (P01024 996-1303 limits assumed): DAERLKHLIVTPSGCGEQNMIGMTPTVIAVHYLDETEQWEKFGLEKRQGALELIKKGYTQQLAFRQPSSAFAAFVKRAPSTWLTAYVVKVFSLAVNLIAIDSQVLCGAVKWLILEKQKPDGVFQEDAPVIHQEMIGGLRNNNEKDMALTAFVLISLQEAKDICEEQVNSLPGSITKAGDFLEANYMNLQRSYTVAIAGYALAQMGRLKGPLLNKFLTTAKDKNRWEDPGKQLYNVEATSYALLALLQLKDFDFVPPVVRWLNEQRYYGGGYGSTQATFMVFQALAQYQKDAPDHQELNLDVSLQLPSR

B1: mouse monoclonal anti-C3d antibody 3d29, produced by hybridoma cell line 3d-29/5/2 (ATCC PTA-11000) (antibody, V domains shown)
VH: EVQLQQSGPVLVKPGASVKMSCKASGYTFTDYYMNWVKQSHGKSLEWIGVINPYNGGTSYNQKFKGKATLTVDKSSRTAYMELNSLTSEDSAVYYCSRGGPYWGQGTTLTVSS
VL: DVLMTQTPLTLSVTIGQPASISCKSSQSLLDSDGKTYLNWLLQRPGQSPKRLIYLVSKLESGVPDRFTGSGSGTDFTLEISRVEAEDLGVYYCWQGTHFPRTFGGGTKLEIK
notes: Whole mouse IgG purified on protein G; also called mAb 3d29; clone 3d29
In general, Kd refers to the free concentration of one partner at which half of the binding sites on the other are occupied at equilibrium, for simple one-to-one binding. As for B1, the Kd is 1.06 nM.
